Patent US20140171625A1 (FATE THERAPEUTICS, published 2014)
Changes are numbered by the printed parent chain. Values belong to the binder of their own block, whether it stands above or below them.

Columns and labels:
[1] = target: T1, gp130 (on C2C12 myoblasts) (UniProt Q00560 23-917, limits assumed); assay: cell-based or functional assay
T1 sequence (looked up): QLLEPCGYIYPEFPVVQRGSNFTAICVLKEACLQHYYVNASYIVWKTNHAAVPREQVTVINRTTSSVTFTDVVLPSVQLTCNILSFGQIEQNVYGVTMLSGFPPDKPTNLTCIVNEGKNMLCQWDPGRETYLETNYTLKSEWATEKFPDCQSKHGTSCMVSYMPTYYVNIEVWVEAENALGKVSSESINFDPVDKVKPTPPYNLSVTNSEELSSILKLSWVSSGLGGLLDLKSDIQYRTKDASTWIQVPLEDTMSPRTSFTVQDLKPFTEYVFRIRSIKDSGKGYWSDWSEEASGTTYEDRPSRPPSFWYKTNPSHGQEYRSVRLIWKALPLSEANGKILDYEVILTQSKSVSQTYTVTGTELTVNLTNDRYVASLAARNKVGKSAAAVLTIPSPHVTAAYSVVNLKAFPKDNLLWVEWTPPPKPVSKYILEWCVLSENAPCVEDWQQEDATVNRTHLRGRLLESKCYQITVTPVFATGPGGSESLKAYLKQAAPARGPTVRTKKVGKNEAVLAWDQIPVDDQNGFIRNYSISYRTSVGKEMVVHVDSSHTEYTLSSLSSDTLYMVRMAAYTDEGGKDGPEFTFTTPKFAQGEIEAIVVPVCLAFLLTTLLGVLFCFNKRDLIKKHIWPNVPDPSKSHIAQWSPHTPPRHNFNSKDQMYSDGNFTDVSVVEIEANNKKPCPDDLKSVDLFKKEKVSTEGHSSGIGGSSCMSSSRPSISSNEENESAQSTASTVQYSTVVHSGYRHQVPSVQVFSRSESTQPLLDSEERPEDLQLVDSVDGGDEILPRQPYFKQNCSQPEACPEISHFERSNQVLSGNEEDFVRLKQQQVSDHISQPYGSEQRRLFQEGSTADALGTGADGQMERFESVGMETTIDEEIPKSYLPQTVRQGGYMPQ

[2] = target: gp130 (on C2C12 myoblasts) (UniProt Q00560); assay: cell-based or functional assay

EC50, Stat3 phosphorylation in C2C12 cells (western blot densitometry) [1]: ~1 ng/mL
B1: wild type human cardiotrophin-1 (CT-1) polypeptide, FTV370 (ligand)
chain: SRREGSLEDPQTDSSVSLLPHLEAKIRQTHSLAHLLTKYAEQLLQEYVQLQGDPFGLPSFSPPRLPVAGLSAPAPSHAGLPVHERLRLDAAALAALPPLLDAVCRRQAELNPRAPRLLRRLEDAARQARALGAAVEALLAALGAANRGPRAEPPAATASAASATGVFPAKVLGLRVCGLYREWLSRTEGDLGQLLPGGSA

EC50, Stat3 phosphorylation in C2C12 cells (western blot densitometry) [2]: 4 ng/mL
mean EC50, Stat3 phosphorylation in C2C12 cells [2]: 5 ng/mL
B2: FTV384, human CT-1 variant with both natural cysteines replaced with serines and an additional cysteine at its carboxyl terminus (ligand)
chain: MSRREGSLEDPQTDSSVSLLPHLEAKIRQTHSLAHLLTKYAEQLLQEYVQLQGDPFGLPSFSPPRLPVAGLSAPAPSHAGLPVHERLRLDAAALAALPPLLDAVSRRQAELNPRAPRLLRRLEDAARQARALGAAVEALLAALGAANRGPRAEPPAATASAASATGVFPAKVLGLRVSGLYREWLSRTEGDLGQLLPGGSAC

EC50, Stat3 phosphorylation in C2C12 cells (western blot densitometry) [2]: 2 to 5 ng/mL
mean EC50, Stat3 phosphorylation in C2C12 cells [2]: 2.5 ng/mL
B3: FTV381, human CT-1 variant retaining cysteine 105 with cysteine 178 replaced (ligand)
chain: MSRREGSLEDPQTDSSVSLLPHLEAKIRQTHSLAHLLTKYAEQLLQEYVQLQGDPFGLPSFSPPRLPVAGLSAPAPSHAGLPVHERLRLDAAALAALPPLLDAVCRRQAELNPRAPRLLRRLEDAARQARALGAAVEALLAALGAANRGPRAEPPAATASAASATGVFPAKVLGLRVSGLYREWLSRTEGDLGQLLPGGSA

EC50, Stat3 phosphorylation in C2C12 cells (western blot densitometry) [2]: 0.35 ng/mL
B4: FTV380, human CT-1 variant with cysteine 105 mutated to serine (ligand)
chain: B3 chain with C105S, S178C
